Measured values reported in patent publication US20210163624A1.

Legend:
[1] = molecular target: RMF peptide (…)/HLA-A0201 complex on the cell surface (human); test: flow cytometry, T2 cells pulsed with WT1 (RMF) peptide 50 ug/ml, control mAb at 0.1 (ug/ml by paragraph 199); secondary alone (T2-WT1-2AB) prints 18
[2] = molecular target: RMF peptide (…)/HLA-A0201 complex on the cell surface (human); test: flow cytometry, T2 cells pulsed with WT1 (RMF) peptide 50 ug/ml, control mAb at 10 (ug/ml by paragraph 199); secondary alone (T2-WT1-2AB) prints 18
[3] = molecular target: RMF peptide (…)/HLA-A0201 complex on the cell surface (human); test: flow cytometry, T2 cells pulsed with WT1 (RMF) peptide 50 ug/ml, control mAb at 0.01 (ug/ml by paragraph 199); secondary alone (T2-WT1-2AB) prints 18
[4] = molecular target: RMF peptide (…)/HLA-A0201 complex on the cell surface (human); test: flow cytometry, T2 cells pulsed with WT1 (RMF) peptide 50 ug/ml, control mAb at 1 (ug/ml by paragraph 199); secondary alone (T2-WT1-2AB) prints 18

fluorescence value (FL2-H: PE; statistic not given) [1]: 29.5
fluorescence value (FL2-H: PE; statistic not given) [2]: 31.1
fluorescence value (FL2-H: PE; statistic not given) [3]: 31.8
fluorescence value (FL2-H: PE; statistic not given) [4]: 37.9
Substance: Isotype control human IgG1 (antibody)
